Data from paper PMC8761494, “Structural basis of Nrd1–Nab3 heterodimerization” (Life Science Alliance, 2022).
Values joined by “and” are separate entries in the source; they are usually repeats but may differ in a detail not shown here. Equal values may be shown once. Read-outs that look alike come from different tables or passages of the source.

T1: Nrd1 part (residues 158-222) of the Nrd1_(158-222)-Nab3_(202-261) chimera (S. cerevisiae, UniProt P53617 158-222)
T1 construct: also called Nrd1 segment of the Nrd1–Nab3 chimera; source: E. coli BL21(DE3), purified (IMAC, TEV digestion, second IMAC, gel filtration); not shown: TxA (E. coli thioredoxin A), N-terminal, cleaved; His6, N-terminal, cleaved
T1 sequence (looked up): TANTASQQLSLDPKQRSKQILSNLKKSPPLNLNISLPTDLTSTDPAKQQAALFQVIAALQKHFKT

T2: txA-HTEV-Nrd1_(147-222) NAID (S. cerevisiae, UniProt P53617 147-222)
T2 chain: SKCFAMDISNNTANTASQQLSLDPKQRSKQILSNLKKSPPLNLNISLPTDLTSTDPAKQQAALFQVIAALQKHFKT

T3: Nrd1_(147-222/290-489) (S. cerevisiae, UniProt P53617 147-489, lacking residues 223–289)
T3 sequence: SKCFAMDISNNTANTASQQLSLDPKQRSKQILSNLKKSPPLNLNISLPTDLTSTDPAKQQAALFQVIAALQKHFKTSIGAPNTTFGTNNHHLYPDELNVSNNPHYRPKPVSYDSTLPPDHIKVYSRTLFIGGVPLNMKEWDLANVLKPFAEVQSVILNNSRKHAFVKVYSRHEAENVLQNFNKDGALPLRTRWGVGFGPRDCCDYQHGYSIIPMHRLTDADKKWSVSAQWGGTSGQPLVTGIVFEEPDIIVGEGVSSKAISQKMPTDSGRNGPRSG

T4: Nrd1_(1-222) (S. cerevisiae, UniProt P53617 1-222)
T4 chain: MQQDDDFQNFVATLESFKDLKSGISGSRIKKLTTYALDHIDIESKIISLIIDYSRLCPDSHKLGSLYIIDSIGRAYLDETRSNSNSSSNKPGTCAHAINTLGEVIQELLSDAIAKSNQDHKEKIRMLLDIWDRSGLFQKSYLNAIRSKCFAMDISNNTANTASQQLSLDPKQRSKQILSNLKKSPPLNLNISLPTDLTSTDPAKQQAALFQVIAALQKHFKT

T5: Nrd1_(1-222) (S. cerevisiae, UniProt P53617 1-222)
T5 construct: also called Nrd1 construct including the CID and NAID; source: E. coli BL21(DE3), purified (IMAC, TEV digestion, second IMAC, gel filtration); not shown: TxA (E. coli thioredoxin A), N-terminal, cleaved; His6, N-terminal, cleaved
T5 sequence (looked up): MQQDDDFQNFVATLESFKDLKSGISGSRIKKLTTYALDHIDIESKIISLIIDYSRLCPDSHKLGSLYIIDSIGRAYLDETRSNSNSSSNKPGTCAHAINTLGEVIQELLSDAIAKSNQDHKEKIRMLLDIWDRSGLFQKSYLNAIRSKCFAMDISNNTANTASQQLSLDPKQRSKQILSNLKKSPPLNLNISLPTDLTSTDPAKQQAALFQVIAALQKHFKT

T6: Nrd1_(147-222/290-489) (S. cerevisiae, UniProt P53617 147-489, lacking residues 223–289)
T6 construct: no linker is mentioned; source: E. coli BL21(DE3), purified (IMAC, TEV digestion, second IMAC, gel filtration); not shown: TxA (E. coli thioredoxin A), N-terminal, cleaved; His6, N-terminal, cleaved
T6 sequence (looked up): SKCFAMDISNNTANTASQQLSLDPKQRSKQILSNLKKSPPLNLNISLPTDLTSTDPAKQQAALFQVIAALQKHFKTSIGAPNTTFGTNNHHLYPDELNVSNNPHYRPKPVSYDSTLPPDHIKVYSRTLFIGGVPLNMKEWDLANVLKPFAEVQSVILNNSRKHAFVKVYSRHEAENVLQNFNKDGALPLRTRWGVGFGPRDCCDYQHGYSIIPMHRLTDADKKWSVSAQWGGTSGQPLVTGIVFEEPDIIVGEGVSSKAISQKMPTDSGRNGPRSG


Legend:
[1] = molecular target: T1, Nrd1 part (residues 158-222) of the …; test: NMR structure; the two stretches joined on one chain (chimera Nrd1_(158-222)-Nab3_(202-261)); 10 mM sodium acetate pH 5.1, 25 mM NaCl, 1 mM DTT, 25°C, ~1 mM protein; details: both partners purified
[2] = molecular target: T2, txA-HTEV-Nrd1_(147-222) NAID; test: ITC
Nrd1_(147-222/290-489) [3] = molecular target: T3, Nrd1_(147-222/290-489); test: ITC
Nrd1_(1-222) [4] = molecular target: T4, Nrd1_(1-222); test: ITC
[5] = molecular target: T2, txA-HTEV-Nrd1_(147-222) NAID; test: ITC
Nrd1_(147-222/290-489) [6] = molecular target: T3, Nrd1_(147-222/290-489); test: ITC; remark: listed apart in the source
Nrd1_(1-222) [7] = molecular target: T4, Nrd1_(1-222); test: ITC
Nrd1_(147-222/290-489) [8] = molecular target: T3, Nrd1_(147-222/290-489); test: ITC; remark: listed apart in the source
Nrd1_(1-222) [9] = molecular target: T4, Nrd1_(1-222); test: ITC
Nrd1_(1-222) [10] = molecular target: T5, Nrd1_(1-222); test: ITC; Nab3_(191-261) (198 μM) in the syringe titrated into Nrd1 variants in the cell (19-54 μM); 15°C; 20 mM potassium phosphate pH 7.0, 150 mM NaCl, 1 mM β-mercaptoethanol; one-site binding model; duplicates; details: both partners purified
Nrd1_(147-222/290-489) [11] = molecular target: T6, Nrd1_(147-222/290-489); test: as above; details: both partners purified

| binding result [1] | Ka [2] | Ka (Nrd1_(147-222/290-489) [3]) [M⁻¹] | Ka (Nrd1_(1-222) [4]) [M⁻¹] | Kd [5] | Kd (Nrd1_(147-222/290-489) [6]) [nM] | Kd (Nrd1_(1-222) [7]) [nM] | Kd (Nrd1_(147-222/290-489) [8]) [nM] | Kd (Nrd1_(1-222) [9]) [nM] | stoichiometry N (Nrd1_(1-222) [10]) | fold tighter binding than with Nrd1_(1-222) (Nrd1_(147-222/290-489) [11]) [fold] | Binder |
| --- | --- | --- | --- | --- | --- | --- | --- | --- | --- | --- | --- |
| binds | – | – | – | – | – | – | – | – | – | – | Nab3 part (residues 202-261) of the Nrd1_(158-222)-Nab3_(202-261) chimera (domain or fragment, S. cerevisiae, UniProt P38996 202-261, looked up, Nab3, S. cerevisiae, residues 202-261; also called Nab3 segment of the Nrd1–Nab3 chimera; source: E. coli BL21(DE3), purified (IMAC, TEV digestion, second IMAC, gel filtration)) NMENVNYDLLQKQVKYIMDSNMLNLPQFQHLPQEEKMSAILAMLNSNSDTALSVPPHDST |
| – | 4.06e+07 M⁻¹ and 4.34e+07 M⁻¹ | 4.97e+07 | 7.22e+06 | 23 nM and 25 nM | 20 | 140 | 36 | 130 | 0.4 | ~4 | Nrd1 interaction domain of Nab3 (Nab3 191-261) (domain or fragment, S. cerevisiae, UniProt P38996 191-261, looked up, 15N/13C-labelled or unlabelled for NMR; natural abundance for ITC; also called NRID; Nab3 NRID; source: E. coli BL21(DE3), purified (IMAC, TEV digestion, second IMAC, gel filtration); not shown: TxA (E. coli thioredoxin A), N-terminal, cleaved; His6, N-terminal, cleaved) REENDNTHFPTNMENVNYDLLQKQVKYIMDSNMLNLPQFQHLPQEEKMSAILAMLNSNSDTALSVPPHDST |
